Biological target: the molecule itself
Test: cross-linking

B1: sigma-1 receptor cysteine 94 alanine / methionine 170 cysteine (C94A/M170C) double mutant (receptor, guinea pig, UniProt Q60492 1-223, looked up)
chain: MQWAVGRRWLWVALFLAAVAVLTQIVWLWLGTQNFVFQREEIAQLARQYAGLDHELAFSKLIVELRRLHPVHVLPDEELQWVFVNAGGWMGAMALLHASLSEYVLLFGTALGSPRHSGRYWAEISDTIISGTFHQWREGTTKSEVFYPGETVVHGPGEATAVEWGPNTWCVEYGRGVIPSTLGFALADTVFSTQDFLTLFYTLRVYARALQLELTTYLFGQDP
In the case of B1, the “stoichiometry N” value is reported as 2.

Source: PMC3581363 (Biochemistry, 2013)
